Values of other authors as cited in patent US20070178499.
pKd: −log10 of the molar value.

Tests used:
[1] = test system: Aart(S) 6-finger (artificial); conditions: CITED?; affinity stated without method
[2] = test system: E2C(S) 6-finger (artificial); conditions: CITED (Beerli 2000)

Substance: Aart 18-bp target site
- pKd [1]: 11.12

Substance: E3 site of erbB-3
- binding signal (fold loss in affinity vs n8) [2]: 15
